Test results from PMC9741242, “Insights into the Structure of the Highly Glycosylated Ffase from Rhodotorula dairenensis Enhance Its Biotechnological Potential” (International Journal of Molecular Sciences, 2022).

B1: RdINV (Rhodotorula dairenensis; A213W/Q216L) (protein)
chain: APAASSLAGPVTTGVFSAVSAIPSFATNLSGQVASATSTVLSGSTASGSSATAAPSASASGASSMQSMASSLSGSAFSPSSMMPIASGNMTMPNMTSSASASSAASTATGVAGGAGSNSSSSCAPTSLPASATELPTTVPTGTVITGDYTGSYRPQVHYSPPKGFMNDPNGCHRDRNGTYHLYYQYNPLEYVWGNLHWGHATSDDLYHWTNQPIAIFPPNSTSQVFSGSAVLDPNNTSGFFPNTTDGVVAVYTLNTPTLQVQEVAYSTDGGYNFTPYENNPVLSVGSNQFRDPKVFWYEDHWVMAVAAANDFTIEIYTSPNLTSWTFASNFTHHGLLGLAYECPNLVQVPFQDDPSKSAWLMYISINPGAPLGGSVGQYFPGDFNGTHFVAYDSAARIADFAKDNYASQWFADTENGESISIAWASNWQYTQQVPTSAQAFRSAMSLPRRNYLTNITRLGWDLVSLPYDLSPVVGPSLLSSSEANSTADVDFTNVTSNAVWFSLNVTLPDAAIQNASLISADASINITFLPSTKCSSSSGSGSDSPAATLTYFYAGLTNGALALTRPAASSSWGAENPFFTDKFSYTLVDPLTSLVGVFDRSMLEVFVNEGAHSATMLVFPDSPVGSMKVATGGLPEGTQVNLQVNGLESTWQSS
notes: full-length RdINV, 675 residues, S. cerevisiae MFalpha secretion signal in pIB4, secreted by Komagataella phaffii; highly N- and O-glycosylated, ~170 kDa; homodimer
B2: RdINV (Rhodotorula dairenensis; Q216T) (protein)
chain: APAASSLAGPVTTGVFSAVSAIPSFATNLSGQVASATSTVLSGSTASGSSATAAPSASASGASSMQSMASSLSGSAFSPSSMMPIASGNMTMPNMTSSASASSAASTATGVAGGAGSNSSSSCAPTSLPASATELPTTVPTGTVITGDYTGSYRPQVHYSPPKGFMNDPNGCHRDRNGTYHLYYQYNPLEYVAGNTHWGHATSDDLYHWTNQPIAIFPPNSTSQVFSGSAVLDPNNTSGFFPNTTDGVVAVYTLNTPTLQVQEVAYSTDGGYNFTPYENNPVLSVGSNQFRDPKVFWYEDHWVMAVAAANDFTIEIYTSPNLTSWTFASNFTHHGLLGLAYECPNLVQVPFQDDPSKSAWLMYISINPGAPLGGSVGQYFPGDFNGTHFVAYDSAARIADFAKDNYASQWFADTENGESISIAWASNWQYTQQVPTSAQAFRSAMSLPRRNYLTNITRLGWDLVSLPYDLSPVVGPSLLSSSEANSTADVDFTNVTSNAVWFSLNVTLPDAAIQNASLISADASINITFLPSTKCSSSSGSGSDSPAATLTYFYAGLTNGALALTRPAASSSWGAENPFFTDKFSYTLVDPLTSLVGVFDRSMLEVFVNEGAHSATMLVFPDSPVGSMKVATGGLPEGTQVNLQVNGLESTWQSS
notes: as for B1
B3: RdINV (Rhodotorula dairenensis; A213W) (protein)
chain: APAASSLAGPVTTGVFSAVSAIPSFATNLSGQVASATSTVLSGSTASGSSATAAPSASASGASSMQSMASSLSGSAFSPSSMMPIASGNMTMPNMTSSASASSAASTATGVAGGAGSNSSSSCAPTSLPASATELPTTVPTGTVITGDYTGSYRPQVHYSPPKGFMNDPNGCHRDRNGTYHLYYQYNPLEYVWGNQHWGHATSDDLYHWTNQPIAIFPPNSTSQVFSGSAVLDPNNTSGFFPNTTDGVVAVYTLNTPTLQVQEVAYSTDGGYNFTPYENNPVLSVGSNQFRDPKVFWYEDHWVMAVAAANDFTIEIYTSPNLTSWTFASNFTHHGLLGLAYECPNLVQVPFQDDPSKSAWLMYISINPGAPLGGSVGQYFPGDFNGTHFVAYDSAARIADFAKDNYASQWFADTENGESISIAWASNWQYTQQVPTSAQAFRSAMSLPRRNYLTNITRLGWDLVSLPYDLSPVVGPSLLSSSEANSTADVDFTNVTSNAVWFSLNVTLPDAAIQNASLISADASINITFLPSTKCSSSSGSGSDSPAATLTYFYAGLTNGALALTRPAASSSWGAENPFFTDKFSYTLVDPLTSLVGVFDRSMLEVFVNEGAHSATMLVFPDSPVGSMKVATGGLPEGTQVNLQVNGLESTWQSS
notes: as for B1
B4: RdINV (Rhodotorula dairenensis; Q216L) (protein)
chain: APAASSLAGPVTTGVFSAVSAIPSFATNLSGQVASATSTVLSGSTASGSSATAAPSASASGASSMQSMASSLSGSAFSPSSMMPIASGNMTMPNMTSSASASSAASTATGVAGGAGSNSSSSCAPTSLPASATELPTTVPTGTVITGDYTGSYRPQVHYSPPKGFMNDPNGCHRDRNGTYHLYYQYNPLEYVAGNLHWGHATSDDLYHWTNQPIAIFPPNSTSQVFSGSAVLDPNNTSGFFPNTTDGVVAVYTLNTPTLQVQEVAYSTDGGYNFTPYENNPVLSVGSNQFRDPKVFWYEDHWVMAVAAANDFTIEIYTSPNLTSWTFASNFTHHGLLGLAYECPNLVQVPFQDDPSKSAWLMYISINPGAPLGGSVGQYFPGDFNGTHFVAYDSAARIADFAKDNYASQWFADTENGESISIAWASNWQYTQQVPTSAQAFRSAMSLPRRNYLTNITRLGWDLVSLPYDLSPVVGPSLLSSSEANSTADVDFTNVTSNAVWFSLNVTLPDAAIQNASLISADASINITFLPSTKCSSSSGSGSDSPAATLTYFYAGLTNGALALTRPAASSSWGAENPFFTDKFSYTLVDPLTSLVGVFDRSMLEVFVNEGAHSATMLVFPDSPVGSMKVATGGLPEGTQVNLQVNGLESTWQSS
notes: as for B1
B5: RdINV (Rhodotorula dairenensis; A360Q/N387T) (protein)
chain: APAASSLAGPVTTGVFSAVSAIPSFATNLSGQVASATSTVLSGSTASGSSATAAPSASASGASSMQSMASSLSGSAFSPSSMMPIASGNMTMPNMTSSASASSAASTATGVAGGAGSNSSSSCAPTSLPASATELPTTVPTGTVITGDYTGSYRPQVHYSPPKGFMNDPNGCHRDRNGTYHLYYQYNPLEYVAGNQHWGHATSDDLYHWTNQPIAIFPPNSTSQVFSGSAVLDPNNTSGFFPNTTDGVVAVYTLNTPTLQVQEVAYSTDGGYNFTPYENNPVLSVGSNQFRDPKVFWYEDHWVMAVAAANDFTIEIYTSPNLTSWTFASNFTHHGLLGLQYECPNLVQVPFQDDPSKSAWLMYISITPGAPLGGSVGQYFPGDFNGTHFVAYDSAARIADFAKDNYASQWFADTENGESISIAWASNWQYTQQVPTSAQAFRSAMSLPRRNYLTNITRLGWDLVSLPYDLSPVVGPSLLSSSEANSTADVDFTNVTSNAVWFSLNVTLPDAAIQNASLISADASINITFLPSTKCSSSSGSGSDSPAATLTYFYAGLTNGALALTRPAASSSWGAENPFFTDKFSYTLVDPLTSLVGVFDRSMLEVFVNEGAHSATMLVFPDSPVGSMKVATGGLPEGTQVNLQVNGLESTWQSS
notes: as for B1
B6: RdINV (Rhodotorula dairenensis; N387T) (protein)
chain: APAASSLAGPVTTGVFSAVSAIPSFATNLSGQVASATSTVLSGSTASGSSATAAPSASASGASSMQSMASSLSGSAFSPSSMMPIASGNMTMPNMTSSASASSAASTATGVAGGAGSNSSSSCAPTSLPASATELPTTVPTGTVITGDYTGSYRPQVHYSPPKGFMNDPNGCHRDRNGTYHLYYQYNPLEYVAGNQHWGHATSDDLYHWTNQPIAIFPPNSTSQVFSGSAVLDPNNTSGFFPNTTDGVVAVYTLNTPTLQVQEVAYSTDGGYNFTPYENNPVLSVGSNQFRDPKVFWYEDHWVMAVAAANDFTIEIYTSPNLTSWTFASNFTHHGLLGLAYECPNLVQVPFQDDPSKSAWLMYISITPGAPLGGSVGQYFPGDFNGTHFVAYDSAARIADFAKDNYASQWFADTENGESISIAWASNWQYTQQVPTSAQAFRSAMSLPRRNYLTNITRLGWDLVSLPYDLSPVVGPSLLSSSEANSTADVDFTNVTSNAVWFSLNVTLPDAAIQNASLISADASINITFLPSTKCSSSSGSGSDSPAATLTYFYAGLTNGALALTRPAASSSWGAENPFFTDKFSYTLVDPLTSLVGVFDRSMLEVFVNEGAHSATMLVFPDSPVGSMKVATGGLPEGTQVNLQVNGLESTWQSS
notes: as for B1
B7: RdINV (Rhodotorula dairenensis) (protein)
chain: APAASSLAGPVTTGVFSAVSAIPSFATNLSGQVASATSTVLSGSTASGSSATAAPSASASGASSMQSMASSLSGSAFSPSSMMPIASGNMTMPNMTSSASASSAASTATGVAGGAGSNSSSSCAPTSLPASATELPTTVPTGTVITGDYTGSYRPQVHYSPPKGFMNDPNGCHRDRNGTYHLYYQYNPLEYVAGNQHWGHATSDDLYHWTNQPIAIFPPNSTSQVFSGSAVLDPNNTSGFFPNTTDGVVAVYTLNTPTLQVQEVAYSTDGGYNFTPYENNPVLSVGSNQFRDPKVFWYEDHWVMAVAAANDFTIEIYTSPNLTSWTFASNFTHHGLLGLAYECPNLVQVPFQDDPSKSAWLMYISINPGAPLGGSVGQYFPGDFNGTHFVAYDSAARIADFAKDNYASQWFADTENGESISIAWASNWQYTQQVPTSAQAFRSAMSLPRRNYLTNITRLGWDLVSLPYDLSPVVGPSLLSSSEANSTADVDFTNVTSNAVWFSLNVTLPDAAIQNASLISADASINITFLPSTKCSSSSGSGSDSPAATLTYFYAGLTNGALALTRPAASSSWGAENPFFTDKFSYTLVDPLTSLVGVFDRSMLEVFVNEGAHSATMLVFPDSPVGSMKVATGGLPEGTQVNLQVNGLESTWQSS
notes: as for B1
B8: RdINV (Rhodotorula dairenensis; A360Q) (protein)
chain: APAASSLAGPVTTGVFSAVSAIPSFATNLSGQVASATSTVLSGSTASGSSATAAPSASASGASSMQSMASSLSGSAFSPSSMMPIASGNMTMPNMTSSASASSAASTATGVAGGAGSNSSSSCAPTSLPASATELPTTVPTGTVITGDYTGSYRPQVHYSPPKGFMNDPNGCHRDRNGTYHLYYQYNPLEYVAGNQHWGHATSDDLYHWTNQPIAIFPPNSTSQVFSGSAVLDPNNTSGFFPNTTDGVVAVYTLNTPTLQVQEVAYSTDGGYNFTPYENNPVLSVGSNQFRDPKVFWYEDHWVMAVAAANDFTIEIYTSPNLTSWTFASNFTHHGLLGLQYECPNLVQVPFQDDPSKSAWLMYISINPGAPLGGSVGQYFPGDFNGTHFVAYDSAARIADFAKDNYASQWFADTENGESISIAWASNWQYTQQVPTSAQAFRSAMSLPRRNYLTNITRLGWDLVSLPYDLSPVVGPSLLSSSEANSTADVDFTNVTSNAVWFSLNVTLPDAAIQNASLISADASINITFLPSTKCSSSSGSGSDSPAATLTYFYAGLTNGALALTRPAASSSWGAENPFFTDKFSYTLVDPLTSLVGVFDRSMLEVFVNEGAHSATMLVFPDSPVGSMKVATGGLPEGTQVNLQVNGLESTWQSS
notes: as for B1

substrate: OC[C@H]1O[C@@](CO)(O[C@H]2O[C@H](CO)[C@@H](O)[C@H](O)[C@H]2O)[C@@H](O)[C@@H]1O; experiment: DNS reducing sugar assay, Michaelis-Menten fit; type: biochemical, Rhodotorula dairenensis; conditions: 50 mM sodium phosphate pH 5.5, 60 °C, sucrose 1-200 mM
Source text: DNS reducing sugar assay, Michaelis-Menten fit on RdINV

Going from B1 to B2, the Km falls from 88 ± 9 mM to 13 ± 1 mM (6.8-fold).

First: B3
Second: B4
The Km of the first is 2-fold higher: 47 ± 3 mM for the first, 24 ± 1 mM for the second.

B5 and B6 are within 1.5-fold of each other in Km: 14 ± 0.6 mM for the first, 17 ± 0.8 mM for the second.

Compared with B7, B8 is 3-fold higher in Km: 5 ± 0.1 mM for the first, 15 ± 0.2 mM for the second.

B1 and B2 are within 1.5-fold of each other in kcat: 10500 ± 329 s⁻¹ for the first, 11500 ± 182 s⁻¹ for the second.

B3 and B4 are within 1.5-fold of each other in kcat: 2720 ± 45 s⁻¹ for the first, 2324 ± 13 s⁻¹ for the second.

B5 and B6 are within 1.5-fold of each other in kcat: 486 ± 4 s⁻¹ for the first, 583 ± 5 s⁻¹ for the second.

B7 and B8 are within 1.5-fold of each other in kcat: 4751 ± 25 s⁻¹ for the first, 3814 ± 16 s⁻¹ for the second.

First: B1
Second: B2
The kcat/Km of the first is 7.2-fold lower: 120000 ± 4000 M⁻¹ s⁻¹ for the first, 864000 ± 39000 M⁻¹ s⁻¹ for the second.

Compared with B3, B4 is 1.7-fold higher in kcat/Km: 58000 ± 3000 M⁻¹ s⁻¹ for the first, 98000 ± 3000 M⁻¹ s⁻¹ for the second.

B5 and B6 are within error of each other in kcat/Km: 34000 ± 1000 M⁻¹ s⁻¹ for the first, 35000 ± 1000 M⁻¹ s⁻¹ for the second.

Going from B7 to B8, the kcat/Km falls from 1.011e+06 ± 10000 M⁻¹ s⁻¹ to 251000 ± 21000 M⁻¹ s⁻¹ (4-fold).
